Reference: PMC7817217 (Proceedings of the National Academy of Sciences of the …, 2020)
Like-named read-outs stand apart in the source and are kept apart here.

What was measured:
[1] = target: SARS-CoV-2 spike protein receptor binding domain (RBD) (SARS-CoV-2, UniProt P0DTC2 319-541); assay: SPR; conditions: both partners purified
[2] = target: SARS-CoV-2 spike protein receptor binding domain (RBD) (SARS-CoV-2, UniProt P0DTC2 319-541); assay: SPR; conditions: both partners purified; remark: listed apart in the source
crystal structure = target: the molecule itself; assay: crystal structure
[3] = target: SARS-CoV-2 spike protein receptor binding domain (RBD) (SARS-CoV-2, UniProt P0DTC2 319-541); assay: SPR

B1: bat ACE2 from Rhinolophus macrotis, expressed in E. coli and refolded (bACE2-Rm-E. coli) (domain or fragment)
chain: STTEDEAKKFLDKFNSKAEDLSYESSLASWDYNTNISDENVQKMDEAGAKWSAFYEEQSKLAKNYPLEEIQNDTVKRQLQILQQSGSPVLSEDKSKRLNSILNAMSTIYSTGKVCKPNNPQECLLLEPGLDNIMGTSKDYNERLWAWEGWRAEVGKQLRPLYEEYVVLKNEMARGYHYEDYGDYWRRDYETEESSGPGYSRDQLMKDVDRIFTEIKPLYEHLHAYVRAKLMDTYPLHISPTGCLPAHLLGDMWGRFWTNLYPLTVPFGQKPNIDVTDAMLNQGWDANRIFKEAEKFFVSVSLPKMTEGFWNKSMLTEPGDGRKVVCHPTAWDLGKGDFRIKMCTKVTMEDFLTAHHEMGHIQYDMAYASQPYLLRNGANEGFHEAVGEVMSLSVATPKHLKTMGLLSPDFREDDETEINFLLKQALNIVGTLPFTYMLEKWRWMVFKGEIPKEEWMKKWWEMKREIVGVVEPVPHDETYCDPASLFHVANDYSFIRYYTRTIFEFQFHEALCRIAQHNGPLHKCDISNSTDAGKKLHQMLSVGKSQAWTKTLEDIVDSRNMDVGPLLRYFKPLYTWLQEQNRKSYVGWNTDWSPYADQSIKVWISLKSALGEKAYEWNDNEMYLFRSSVAYAMREYFLKTKNQTILFGDENVWVSNLKPRISFNFHVTSPGNVSDIIPRPEVEGAIRMSRSRINDAFRLDDNSLEFLGIQPTLGPPYQPPVTI
[1]
  koff: 0.132 s⁻¹
  kon: 102000 M⁻¹ s⁻¹

B2: bat ACE2 from Rhinolophus macrotis, expressed in insect cells (bACE2-Rm-insect) (domain or fragment)
chain: STTEDEAKKFLDKFNSKAEDLSYESSLASWDYNTNISDENVQKMDEAGAKWSAFYEEQSKLAKNYPLEEIQNDTVKRQLQILQQSGSPVLSEDKSKRLNSILNAMSTIYSTGKVCKPNNPQECLLLEPGLDNIMGTSKDYNERLWAWEGWRAEVGKQLRPLYEEYVVLKNEMARGYHYEDYGDYWRRDYETEESSGPGYSRDQLMKDVDRIFTEIKPLYEHLHAYVRAKLMDTYPLHISPTGCLPAHLLGDMWGRFWTNLYPLTVPFGQKPNIDVTDAMLNQGWDANRIFKEAEKFFVSVSLPKMTEGFWNKSMLTEPGDGRKVVCHPTAWDLGKGDFRIKMCTKVTMEDFLTAHHEMGHIQYDMAYASQPYLLRNGANEGFHEAVGEVMSLSVATPKHLKTMGLLSPDFREDDETEINFLLKQALNIVGTLPFTYMLEKWRWMVFKGEIPKEEWMKKWWEMKREIVGVVEPVPHDETYCDPASLFHVANDYSFIRYYTRTIFEFQFHEALCRIAQHNGPLHKCDISNSTDAGKKLHQMLSVGKSQAWTKTLEDIVDSRNMDVGPLLRYFKPLYTWLQEQNRKSYVGWNTDWSPYAD
[1]
  koff: 0.0692 s⁻¹

B3: bat ACE2 from Rhinolophus macrotis fused to the mouse Fc tag (bACE2-Rm-mFc) (Fc fusion)
chain: B2 chain
[1]
  koff: 0.137 s⁻¹

B4: bACE2-Rm (bat ACE2 from Rhinolophus macrotis) expressed in E. coli, residues 19 to 741 (domain or fragment)
chain: B1 chain
notes: also called bACE2-Rm-E. coli; bat ACE2-E. coli
[2]
  Kd: 1.3 µM
Crystal structure
  binding result: binds

B5: bACE2-Rm residues 19 to 615 fused to the mouse Fc tag (bACE2-Rm-mFc) (Fc fusion)
chain: B2 chain
notes: also called bACE2-Rm-HEK293T cells; bACE2-Rm-WT
[2]
  Kd: 2.78 µM

B6: bACE2-Rm (bat ACE2 from Rhinolophus macrotis) expressed in insect cells, residues 19 to 615 (domain or fragment)
chain: B2 chain
[2]
  Kd: 1.5 µM

B7: bACE2 from Rhinolophus affinis (bACE2-Ra) (receptor)
chain: STTEDRAKIFLDNFNHEAEDLSYQSSLASWEYNTNISDENVQKMDEAGAKWSAFYEEQSKLAKNYPLEEIQTVPVKLQLQILQQSGSPVLSEDKSKRLNSILNAMSTIYSTGKVCKPNNPQECFLLEPGLDNIMGTSKDYNERLWAWEGWRAEVGKQLRPLYEEYVVLKNEMARGYHYEDYGDYWRRDYETEESSGSGYSRDQLMKDVDRIFTEIKPLYEHLHAYVRTKLMDTYPFHISPTGCLPAHLLGDMWGRFWTNLYPLTVPFGQKPNIDVTDAMVNQGWDANRIFKEAEKFFVSVGLPNMTEGFWNNSMLTEPGDGRKVVCHPTAWDLGKGDFRIKMCTKVTMEDFLTAHHEMGHIQYDMAYATQPYLLRNGANEGFHEAVGEVMSLSVATPKHLKTMGLLSPDFLEDNETEINFLLKQALNIVGTLPFTYMLEKWRWMVFRGEIPKEEWMKKWWEMKRDLVGVVEPVPHDETYCDPASLFHVANDYSFIRYYTRTIFEFQFHEALCRIAQHDGPLHKCDISNSTDAGKKLHQMLSVGKSQPWTVTLKDIVDSRNMDVGPLLRYFEPLYTWLQEQNRKSHVGWNTDWSPYSD
[3]
  Kd: 0.44 µM
